Measurements reported in patent US20140096284A1, “METHOD FOR THE DELIVERY OF MOLECULES LYOPHILIZED ONTO MICROPARTICLES TO PLANT TISSUES” (priority 2012, published 2014).

B1: trypsin: enzyme (Sigma) expected to digest intracellular protein (protein, UniProt P00760 24-246, looked up)
Serine protease 1: IVGGYTCGANTVPYQVSLNSGYHFCGGSLINSQWVVSAAHCYKSGIQVRLGEDNINVVEGNEQFISASKSIVHPSYNSNTLNNDIMLIKLKSAASLNSRVASISLPTSCASAGTQCLISGWGNTKSSGTSYPDVLKCLKAPILSDSSCKSAYPGQITSNMFCAGYLEGGKDSCQGDSGGPVVCSGKLQGIVSWGSGCAQKNKPGVYTKVCNYVSWIKQTIASN
B2: β-glucuronidase: enzyme (Sigma) detected by X-gluc histochemical staining (protein, UniProt P05804 1-603, looked up)
Beta-glucuronidase: MLRPVETPTREIKKLDGLWAFSLDRENCGIDQRWWESALQESRAIAVPGSFNDQFADADIRNYAGNVWYQREVFIPKGWAGQRIVLRFDAVTHYGKVWVNNQEVMEHQGGYTPFEADVTPYVIAGKSVRITVCVNNELNWQTIPPGMVITDENGKKKQSYFHDFFNYAGIHRSVMLYTTPNTWVDDITVVTHVAQDCNHASVDWQVVANGDVSVELRDADQQVVATGQGTSGTLQVVNPHLWQPGEGYLYELCVTAKSQTECDIYPLRVGIRSVAVKGEQFLINHKPFYFTGFGRHEDADLRGKGFDNVLMVHDHALMDWIGANSYRTSHYPYAEEMLDWADEHGIVVIDETAAVGFNLSLGIGFEAGNKPKELYSEEAVNGETQQAHLQAIKELIARDKNHPSVVMWSIANEPDTRPQGAREYFAPLAEATRKLDPTRPITCVNVMFCDAHTDTISDLFDVLCLNRYYGWYVQSGDLETAEKVLEKELLAWQEKLHQPIIITEYGVDTLAGLHSMYTDMWSEEYQCAWLDMYHRVFDRVSAVVGEQVWNFADFATSQGILRVGGNKKGIFTRDRKPKSAAFLLQKRWTGMNFGEKPQQGGKQ
B3: RNAse: enzyme (Sigma) expected to digest intracellular RNA content (protein, UniProt P61823 27-150, looked up)
Ribonuclease pancreatic: KETAAAKFERQHMDSSTSAASSSNYCNQMMKSRNLTKDRCKPVNTFVHESLADVQAVCSQKNVACKNGQTNCYQSYSTMSITDCRETGSSKYPNCAYKTTQANKHIIVACEGNPYVPVHFDASV

Assays:
[1] = system: onion epidermis tissue; assay: Fluorescein diacetate staining, count of dead cells after bombardment; format: cell-based; conditions: 200 μg trypsin or 40 μg RNAse per shot lyophilized onto 0.6 μm gold
Protocol: Onion epidermis tissues were submerged in 10 mL of MS liquid media to which 100 μL of a 5 mg mL^−1 of fluorescein diacetate (Alfa Aesar) solution in acetone were added. The samples were incubated for 2-5 minutes and directly observed under the green channel filter of the fluorescence microscope. For quantitative measurements, 12 images (10.5×8 mm) were taken with the 5× microscope objective scattered every 0.5 cm (4 columns×3 rows). The total amount of dead cells found on each image was counted.
The high concentration of protein used per shot (250 μg per shot) and the lyophilization process could cause cell death by: (1) physical damage of the potential clumps produced after lyophilizing protein and microparticles and (2) excess of intracellular protein delivery reaching toxic levels. To assess cellular death, onion epidermis tissues were stained with fluorescein diacetate, which stains in fluorescent green the living cells, while the dead ones remain dark (FIG. 7A). […]
As another example of active enzyme delivery, trypsin and RNAse A were chosen. […] The number of dead cells was measured using fluorescein diacetate staining in samples not bombarded, bombarded only with 0.6 μm gold or with 200 μg of trypsin or 40 μg of RNAse per shot. […]

[2] = system: onion epidermis tissue; assay: Biolistic delivery of molecules lyophilized onto 0.6 μm gold microcarriers to onion epidermis tissue; format: cell-based; conditions: 275 μg per shot lyophilized onto 0.6 μm gold, one day after bombardment
Protocol: 2 μL of 0.6 μm gold particle stock was mixed with 1 μg of GFP plasmid pLMNC95 or 2 μL of a 400 ng/μL, TRITC-BSA solution. The mixture was poured on a macrocarrier, frozen in liquid nitrogen and freeze-dry for 1 hour prior to onion epidermis tissue bombardment.
Onion epidermis tissue was obtained from the scale leaves of white onion bulbs. Rectangular (3×2.5 cm) pieces were peeled right before the bombardment and placed in solid agar media (0.5 mM of 2-(N-morpholino)ethanesulfonic acid (MES), 15 g L^−1 Bacto agar (BD), pH 5.7) with the peeled side upwards. For quantitative measurements, epidermis pieces of the same scale leaf were distributed among treatments. Tobacco leaves (Nicotiana tabacum var. Petite Havana) were obtained from 3-6 week old in vitro grown plants on MS media (MS medium (Murashige and Skoog, 1962), 2% sucrose, 2.5 g L^−1 gelrite, pH 5.7). Leaves were cut right before bombardment and put with the adaxial surface up on agar media. Hill maize immature embryos were obtained from immature ears provided by the Center for Plant Transformation—Iowa State University. […]
Bright field and fluorescence images were taken using a Zeiss Axio star plus microscope. […] For the green channel fluorescence images a GFP BP filter (Chroma Technology Corp.) was used (λex=470 nm, beam splitter=495 nm and λem=525 nm). […]

[3] = system: onion epidermis tissue; assay: Biolistic delivery of air-dried or freeze-dried protein or DNA, with or without 0.6 μm gold, to onion epidermis; format: cell-based
Protocol: Previously, protein and 0.6 μm gold projectiles were mixed and poured on top of a macrocarrier of the gene gun, frozen in liquid nitrogen, and lyophilized or freeze-dried. The same experiment was repeated by pouring the protein/0.6 μm gold mixture over a macrocarrier and leaving it to dry on top of a bench for 1 hour or overnight, termed “air-dried” (FIG. 10A). The experiment was done with two different proteins, β-glucuronidase and DS-RED2. Onion epidermis tissues were bombarded using these macrocarriers. An experiment was conducted using β-glucuronidase and DS-RED2, air-dried directly onto the macrocarriers without 0.6 μm gold projectiles (FIG. 10B). […] An experiment was conducted to compare DNA coating based on CaCl2/spermidine precipitation, freeze-drying or air-drying, and 0.6 μm gold particles. […] A DNA containing solution was freeze-dried or air-dried (without 0.6 μm gold projectiles) directly onto macrocarriers. Onion epidermis tissues were bombarded and 1 to 20 fluorescent cells could be observed (FIG. 15 and FIG. 16). Even though the number of cells that were transfected is much lower than when using 0.6 μm gold, protein can be delivered without the use of projectiles.

[4] = system: onion epidermis cell tissues; assay: Bombardment of onion epidermis with liquid protein solutions; format: cell-based; conditions: liquid protein solution on macrocarrier; tissue damage was caused
Excerpt: As a control, β-glucuronidase and DS-RED2 protein solutions were poured over the macrocarrier and onion epidermis cell tissues were bombarded. […] However, the use of lesser volumes, less harsh gene-gun conditions or other liquid propelling methodologies may allow for protein delivery with less tissue damage.

[5] = system: mouse ear pinna tissue cells; assay: Delivery of active β-glucuronidase to mouse ear pinna tissue cells; format: cell-based, CD-1 mice; conditions: 200 μg per shot air-dried with 90 μg 0.6 μm gold; 650 and 1100 psi; sixteen hours
Protocol: A mixture of 90 μg of 0.6 μm gold and 200 μg of β-glucuronidase per shot were air-dried onto the macrocarrier set for 2 hours. Ear pinnas of 8 week old CD-1 mice were dissected right after animals were euthanized. The tissues were disposed with the inner part of the ear upwards on an agar medium plate (FIG. 17A) and were immediately bombarded using the PDS-1000/He gene-gun at 650 psi or 1100 psi, 6 cm target distance and 28 mmHg vacuum. Samples were then soaked in X-gluc solution and incubated at 37° C. overnight. Sixteen hours later samples were examined under the microscope. […] Multiple gold particles (detected as dark dots) could be detected in different depths of the same cell (FIG. 17C). The localization of these blue cells in the bombarded tissue is the result of active β-glucuronidase protein delivery.

[6] = system: onion epidermis tissues; assay: Delivery of β-glucuronidase or plasmid DNA air dried onto tungsten particles to onion epidermis; format: cell-based; conditions: 200 μg per shot air-dried onto M5 or M17 tungsten; 1100 psi/6 cm
Protocol: M5 (0.4 μm in size) and M17 (1.1 μm in size) tungsten particles from Bio-Rad were used. 100 μg of each type of particle and 200 μg of β-glucuronidase enzyme or 1 μg of GFP expressing plasmid pLMNC95 were used per shot. The suspensions were air dried for 2 hours onto the macrocarrier-set. Onion epidermis tissues were bombarded at 1100 psi/6 cm. Samples bombarded with β-glucuronidase were incubated overnight at 37° C. in X-gluc solution as previously described.

Molecule	dead cells compared with controls without the enzymes (indirect measurement of enzyme activity) [1]	active enzyme delivery (blue cells after X-gluc staining) [2]	protein delivery after bombardment ([3]; air-dried directly onto macrocarriers without 0.6 μm gold)	degradation when subjected to air drying ([3]; air-dried on macrocarrier)	protein delivery after bombardment ([3]; air-dried with 0.6 μm gold on macrocarrier for 1 hour or overnight)	protein delivery after bombardment [4]	active enzyme delivery (blue cells after X-gluc incubation) [5]	active enzyme delivery (blue cells after X-gluc incubation) [6]
B1	large amounts of dead cells							
B2		several blue cells could be observed	protein delivery also could be detected	not substantially degraded	protein delivery was achieved	no protein delivery was observed	several blue cells were localized in the tissues	several cells were showing blue coloration
B3	large amounts of dead cells							
